These results are taken from publication PMC7949081.

For the experiment, the target named is Zn2+. Description: Zincon assay. The note with it: purified Vif complex denatured and deproteinated; metal ions measured in supernatant; parent: est. 1.3; read off a plot.
In the case of “maedi–visna virus (MVV) Vif, WT, residues 1-230, N-terminal 6xHis tagged (from UniProt P69715) H7N”, the other: Zn2+:Protein Ratio amounted to 1.2.
Regarding “maedi–visna virus (MVV) Vif, WT, residues 1-230, N-terminal 6xHis tagged (from UniProt P69715) H186N”, the other: Zn2+:Protein Ratio came to 1.1.
The figure for “maedi–visna virus (MVV) Vif, WT, residues 1-230, N-terminal 6xHis tagged (from UniProt P69715) C137S” is 0.07; for “maedi–visna virus (MVV) Vif, WT, residues 1-230, N-terminal 6xHis tagged (from UniProt P69715) C157S” it is 0.2.
The figure for “maedi–visna virus (MVV) Vif, WT, residues 1-230, N-terminal 6xHis tagged (from UniProt P69715) C222S” is 0.77.
The figure for “maedi–visna virus (MVV) Vif, WT, residues 1-230, N-terminal 6xHis tagged (from UniProt P69715) H152N” is 0.97; for “maedi–visna virus (MVV) Vif, WT, residues 1-230, N-terminal 6xHis tagged (from UniProt P69715) H129N” it is 0.92; for “maedi–visna virus (MVV) Vif, WT, residues 1-230, N-terminal 6xHis tagged (from UniProt P69715) C207S” it is 0.93.
As for “maedi–visna virus (MVV) Vif, WT, residues 1-230, N-terminal 6xHis tagged (from UniProt P69715) C160S”, the other: Zn2+:Protein Ratio was determined as 0.17.
The figure for “maedi–visna virus (MVV) Vif, WT, residues 1-230, N-terminal 6xHis tagged (from UniProt P69715) H181N” is 1.2; for “maedi–visna virus (MVV) Vif, WT, residues 1-230, N-terminal 6xHis tagged (from UniProt P69715) C135S” it is 0.09.
